# Patent US20250340661A1 (JIANGSU HENGRUI PHARMACEUTICALS, published 2025)
# Biological target: T1, human CD40 on the cell surface (human, UniProt P25942 21-277)
# Assay: cell-based or functional assay
# T1 sequence (P25942 21-277): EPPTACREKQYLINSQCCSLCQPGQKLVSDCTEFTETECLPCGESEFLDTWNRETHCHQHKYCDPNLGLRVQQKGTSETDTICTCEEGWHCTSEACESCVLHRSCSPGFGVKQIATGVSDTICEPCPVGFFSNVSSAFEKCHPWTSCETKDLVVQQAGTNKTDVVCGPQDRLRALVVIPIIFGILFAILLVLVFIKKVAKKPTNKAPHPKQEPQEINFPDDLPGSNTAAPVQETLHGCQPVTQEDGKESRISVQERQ
row,Binder,"reporter gene cell activity IC50 (HEK-Blue CD40L cells, SEAP) [nM]"
1,"8C12 human-rabbit chimeric anti-CD40 antibody (antibody, human IgG1, V domains shown) VH: QSVKESEGGLFKPTDTLTLTCTVSGFSLSSYGVSWVRQAPGNGLEWIGGIGSDGSAYYASWAKSRATITRDTNLKTVTLEMTSLTVADTATYFCARGGITVYAIWGPGTLVTVSS VL: AFELTQTPSPVSAAVGGTVTIKCQASQSISNGLAWYQQKPGQPPKVLIVGASNLASGVSSRFKGSGSGTEFTLSISDLECADGATYYCQSYFSSSSTVFGGGTEVVVK",0.173
2,"9F10 human-rabbit chimeric anti-CD40 antibody (antibody, human IgG1, V domains shown) VH: QSVKESEGGLFKPTDTLTLTCTVSGFSLSSYDMSWVRQAPGNGLEWIGAIGGAGGTYYASWAKSRSTITRNTNLNTVTLKMTSLTAADTATYFCTRGWTRLDLWGQGTLVTVSS VL: DIVLTQTESPVSGPVGGTVTINCQASEDISSNLAWYQQKPGQPPKLLIYAASNLASGVPSRFKGSGSGTEFTLTISDLECADAATYYCQGAYWSSTSYFGNGFGGGTQVVVK",0.217

# The remaining lines, values ahead:
row,"reporter gene cell activity IC50 (HEK-Blue CD40L cells, SEAP) [nM]",Binder
1,0.197,"4D4 human-rabbit chimeric anti-CD40 antibody (antibody, human IgG1, V domains shown) VH: QSVKESEGGLFKPTDTLTLTCTVSGFSLSSYGVSWVRQAPGNGLEWIGGIGSDGSAYYASWAKSRATITRDTNLKTVTLEMTSLTAADTATYFCARGGITVYAIWGPGTLVTVSS VL: AFELTQTPSPVSAAVGGTVTIKCQASQSISNGLAWYQQKPGQPPKVLIVGASNLASGVSSRFKGSGSGTEFTLSISDLECADGATYYCQSYFSSSSTVFGGGTEVVVK"
2,0.156,"8G10 human-rabbit chimeric anti-CD40 antibody (antibody, human IgG1, V domains shown) VH: QSVKESEGGLFKPTATLTLTCTVSGFSLSSYGVSWVRQAPGSGLEWIGGIASTGTTYYANWAKSRSTITRDTNLKTVTLKMTSLTAADTATYFCARGGITAYAIWGPGTLVTVSS VL: AFELTQTPSSVEAAVGGTVTIKCQASQSITNGLAWYQQKPGQPPKLLIAGASNLASGVSSRFKGSGSGTEFTLTISDLECADAATYYCQSYYDSSSTVFGGGTEVVVK"
3,0.217,"10A4 human-rabbit chimeric anti-CD40 antibody (antibody, human IgG1, V domains shown) VH: QSLEESGGRLVTPGGSLTLTCTVSGIDLSRNAISWVRQSPGNGLEWIGGIGSSGSAYYASWAKSRSTITRDTNLNTVTLKMTSLTAADTATYFCARDGYAGSSWGIYYGMDPWGPGTLVTVSS VL: AIEMTQSPPSLSASVGETVRIRCLASEDIYRGISWYQQKPGKPPTLLIYGASTLQSGVPPRFSGSGSGTDYTLTIGGVQAEDAATYYCLGGHSYSSAGLTFGAGTKVEIK"

# Biological target: T1, human CD40 on the cell surface
# Assay: flow cytometry on Raji cells, AF647 anti-human IgG detection
# Description: Raji cells are of a tumor cell line that overexpresses human CD40. 2E5 Raji cells were inoculated onto a 96-well plate. 100 μL of a test antibody was added, with the highest final concentration of 100 nM. The antibody was 5-fold diluted to 8 concentrations. The plate was incubated at 4° C. for 1 h. […] The plate was incubated at 4° C. for 30 min. The plate was washed once with wash buffer, and fluorescence intensity was measured using a flow cytometer. The binding EC₅₀ values of the anti-CD40 antibodies for CD40 were calculated. The anti-CD40 antagonistic antibody CFZ533 (i.e., iscalimab, Nova) was used as a positive control, and the heavy and light chain variable region sequences were derived from sequence 5 and sequence 2 of U.S. Pat. No. 8,277,810B, respectively.
row,EC50 [nM],Binder
1,0.467,"10A4 human-rabbit chimeric anti-CD40 antibody (antibody, human IgG1, V domains shown) VH: QSLEESGGRLVTPGGSLTLTCTVSGIDLSRNAISWVRQSPGNGLEWIGGIGSSGSAYYASWAKSRSTITRDTNLNTVTLKMTSLTAADTATYFCARDGYAGSSWGIYYGMDPWGPGTLVTVSS VL: AIEMTQSPPSLSASVGETVRIRCLASEDIYRGISWYQQKPGKPPTLLIYGASTLQSGVPPRFSGSGSGTDYTLTIGGVQAEDAATYYCLGGHSYSSAGLTFGAGTKVEIK"

# Biological target: T1, human CD40 on the cell surface
# Assay: flow cytometry on Raji cells, Alexa Fluor 488 anti-human IgG (H+L) detection
# Description: Raji cells were plated at 1.5E5/well, and various concentrations of CD40 antagonistic antibodies were added. The plate was incubated at 4° C. for 1 h. After two washes with FACS buffer (PBS+2% FBS), a secondary antibody (Alexa Flour488 conjugated anti-human IgG (H+L) antibody) was added, and the plate was incubated at 4° C. for 0.5 h.
# After two washes with FACS buffer, the fluorescence intensity on the cell surface was measured by flow cytometry (BD FACS Celesta).
row,Binder,EC50 [nM]
1,"humanized anti-CD40 antibody 9E6-L2H1 (antibody, human IgG1, V domains shown) VH: EVQLQESGPGLVKPSDTLSLTCTVSGFSLSSYDMSWIRQPPGKGLEWIGAIGGAGGTYYASWAKSRVTISVDTSLNQVSLKLSSVTAADTAVYYCARGWTRLDLWGQGTLVTVSS VL: DIQLTQSPSFLSASVGDRVTITCQASEDISSNLAWYQQKPGKPPKLLIFPASNLASGVPSRFSGSGSGTEFTLTISSLQPEDFATYYCQGGYWTSTSNFGSGFGGGTKVEIK",1.99
2,"humanized anti-CD40 antibody 9E6-L4H1 (antibody, human IgG1, V domains shown) VH: EVQLQESGPGLVKPSDTLSLTCTVSGFSLSSYDMSWIRQPPGKGLEWIGAIGGAGGTYYASWAKSRVTISVDTSLNQVSLKLSSVTAADTAVYYCARGWTRLDLWGQGTLVTVSS VL: DIQLTQSPSFLSASVGDRVTITCQASEDISSNLAWYQQKPGKPPKLLIFPASNLASGVPSRFSGSGSGTEFTLTISSLQPEDFATYYCQGGYWTSTSNFGQGFGGGTKVEIK",0.928
3,"humanized anti-CD40 antibody 9E6-L3H2 (antibody, human IgG1, V domains shown) VH: QVQVQESGPGLVKPSDTLSLTCTVSGFSLSSYDMSWIRQPPGKGLEWIGAIGGAGGTYYASWAKSRVTISVDTSLNQVSLKLSSVTAADTAVYYCARGWTRLDLWGQGTLVTVSS VL: DIQLTQSPSFLSASVGDRVTITCQASEDISSNLAWYQQKPGKPPKLLIFPASNLASGVPSRFSGSGSGTEFTLTISSLQPEDFATYYCQGGYWTSTSNFGTGFGGGTKVEIK",1.15
4,"humanized anti-CD40 antibody 9E6-L2H2 (antibody, human IgG1, V domains shown) VH: QVQVQESGPGLVKPSDTLSLTCTVSGFSLSSYDMSWIRQPPGKGLEWIGAIGGAGGTYYASWAKSRVTISVDTSLNQVSLKLSSVTAADTAVYYCARGWTRLDLWGQGTLVTVSS VL: DIQLTQSPSFLSASVGDRVTITCQASEDISSNLAWYQQKPGKPPKLLIFPASNLASGVPSRFSGSGSGTEFTLTISSLQPEDFATYYCQGGYWTSTSNFGSGFGGGTKVEIK",1.66
5,"humanized anti-CD40 antibody 9E6-L1H1 (antibody, human IgG1, V domains shown) VH: EVQLQESGPGLVKPSDTLSLTCTVSGFSLSSYDMSWIRQPPGKGLEWIGAIGGAGGTYYASWAKSRVTISVDTSLNQVSLKLSSVTAADTAVYYCARGWTRLDLWGQGTLVTVSS VL: DIQLTQSPSFLSASVGDRVTITCQASEDISSNLAWYQQKPGKPPKLLIFPASNLASGVPSRFSGSGSGTEFTLTISSLQPEDFATYYCQGGYWTSTSNFGNVFGGGTKVEIK",1.08
6,"humanized anti-CD40 antibody 2F12-L2H1 (antibody, human IgG1, V domains shown) VH: EVTLKESGPVLVKPTETLTLTCTVSGFSLSSYGVSWIRQPPGKALEWLAGIGSDGSAYYASWAKSRLTISRDTNLKQVVLTMTNMDPVDTATYYCARGGITVYAMWGQGTLVTVSS VL: AFQLTQSPSSLSASVGDRVTITCQASQSISQGLAWYQQKPGKPPKLLIVGASNLASGVPSRFSGSGSGTDFTLTISSLQPEDFATYYCQSYFSSSSTVFGGGTKVEIK",0.516
7,"humanized anti-CD40 antibody 2F12-L3H2 (antibody, human IgG1, V domains shown) VH: EVTVKESGPVLVKPTETLTLTCTVSGFSLSSYGVSWIRQPPGKALEWLGGIGSDGSAYYASWAKSRLTISRDTNLKQVVLTMTNMDPVDTATYYCARGGITVYAMWGQGTLVTVSS VL: AFQLTQSPSSLSASVGDRVTITCQASQSISSGLAWYQQKPGKPPKLLIVGASNLASGVPSRFSGSGSGTDFTLTISSLQPEDFATYYCQSYFSSSSTVFGGGTKVEIK",0.762
8,"humanized anti-CD40 antibody 2F12-L1H2 (antibody, human IgG1, V domains shown) VH: EVTVKESGPVLVKPTETLTLTCTVSGFSLSSYGVSWIRQPPGKALEWLGGIGSDGSAYYASWAKSRLTISRDTNLKQVVLTMTNMDPVDTATYYCARGGITVYAMWGQGTLVTVSS VL: AFQLTQSPSSLSASVGDRVTITCQASQSISNVLAWYQQKPGKPPKLLIVGASNLASGVPSRFSGSGSGTDFTLTISSLQPEDFATYYCQSYFSSSSTVFGGGTKVEIK",0.469
9,"humanized anti-CD40 antibody 2F12-L3H1 (antibody, human IgG1, V domains shown) VH: EVTLKESGPVLVKPTETLTLTCTVSGFSLSSYGVSWIRQPPGKALEWLAGIGSDGSAYYASWAKSRLTISRDTNLKQVVLTMTNMDPVDTATYYCARGGITVYAMWGQGTLVTVSS VL: AFQLTQSPSSLSASVGDRVTITCQASQSISSGLAWYQQKPGKPPKLLIVGASNLASGVPSRFSGSGSGTDFTLTISSLQPEDFATYYCQSYFSSSSTVFGGGTKVEIK",0.456
10,"humanized anti-CD40 antibody 2F12-L1H1 (antibody, human IgG1, V domains shown) VH: EVTLKESGPVLVKPTETLTLTCTVSGFSLSSYGVSWIRQPPGKALEWLAGIGSDGSAYYASWAKSRLTISRDTNLKQVVLTMTNMDPVDTATYYCARGGITVYAMWGQGTLVTVSS VL: AFQLTQSPSSLSASVGDRVTITCQASQSISNVLAWYQQKPGKPPKLLIVGASNLASGVPSRFSGSGSGTDFTLTISSLQPEDFATYYCQSYFSSSSTVFGGGTKVEIK",0.549

# Now from value to binder:
row,EC50 [nM],Binder
1,1.06,"humanized anti-CD40 antibody 9E6-L3H1 (antibody, human IgG1, V domains shown) VH: EVQLQESGPGLVKPSDTLSLTCTVSGFSLSSYDMSWIRQPPGKGLEWIGAIGGAGGTYYASWAKSRVTISVDTSLNQVSLKLSSVTAADTAVYYCARGWTRLDLWGQGTLVTVSS VL: DIQLTQSPSFLSASVGDRVTITCQASEDISSNLAWYQQKPGKPPKLLIFPASNLASGVPSRFSGSGSGTEFTLTISSLQPEDFATYYCQGGYWTSTSNFGTGFGGGTKVEIK"
2,1.05,"humanized anti-CD40 antibody 9E6-L1H2 (antibody, human IgG1, V domains shown) VH: QVQVQESGPGLVKPSDTLSLTCTVSGFSLSSYDMSWIRQPPGKGLEWIGAIGGAGGTYYASWAKSRVTISVDTSLNQVSLKLSSVTAADTAVYYCARGWTRLDLWGQGTLVTVSS VL: DIQLTQSPSFLSASVGDRVTITCQASEDISSNLAWYQQKPGKPPKLLIFPASNLASGVPSRFSGSGSGTEFTLTISSLQPEDFATYYCQGGYWTSTSNFGNVFGGGTKVEIK"
3,0.516,"humanized anti-CD40 antibody 2F12-L2H2 (antibody, human IgG1, V domains shown) VH: EVTVKESGPVLVKPTETLTLTCTVSGFSLSSYGVSWIRQPPGKALEWLGGIGSDGSAYYASWAKSRLTISRDTNLKQVVLTMTNMDPVDTATYYCARGGITVYAMWGQGTLVTVSS VL: AFQLTQSPSSLSASVGDRVTITCQASQSISQGLAWYQQKPGKPPKLLIVGASNLASGVPSRFSGSGSGTDFTLTISSLQPEDFATYYCQSYFSSSSTVFGGGTKVEIK"
4,0.508,"humanized anti-CD40 antibody 2F12-L4H1 (antibody, human IgG1, V domains shown) VH: EVTLKESGPVLVKPTETLTLTCTVSGFSLSSYGVSWIRQPPGKALEWLAGIGSDGSAYYASWAKSRLTISRDTNLKQVVLTMTNMDPVDTATYYCARGGITVYAMWGQGTLVTVSS VL: AFQLTQSPSSLSASVGDRVTITCQASQSISTGLAWYQQKPGKPPKLLIVGASNLASGVPSRFSGSGSGTDFTLTISSLQPEDFATYYCQSYFSSSSTVFGGGTKVEIK"
